Patent US20190233493A1 (Sanofi, published 2019)
*1 amine or outer side, *2 acyl side, *3 side chain or, on linkers, in order; H or OH if unused. Primed or numbered codes have the meaning given here. Side-chain parts run from the residue outwards. [ ]: non-standard residue; d: D form. The star is where a group is joined. TTDS(3) = O=C(CCC(=O)[*:2])NCCCOCCOCCOCCCN[*:1]; Arg(Me2s) = CN=C(NC)NCCC[C@H](N)C(=O)O; γGlu = O=C(O)[C@H](CCC(=O)[*:2])N[*:1]; Stearoyl = CCCCCCCCCCCCCCCCCC(=O)*; Palmitoyl = CCCCCCCCCCCCCCCC(=O)*; αMeK = C[C@](N)(CCCCN)C(=O)O; Nle = CCCC[C@H](N)C(=O)O; PEG2′ = PEG2 spacer unit; PEG2″ = not defined here; Aib = CC(C)(N)C(=O)O

T1: RXFP1 receptor (UniProt Q9HBX9 1-757, limits assumed)
T1 sequence (looked up): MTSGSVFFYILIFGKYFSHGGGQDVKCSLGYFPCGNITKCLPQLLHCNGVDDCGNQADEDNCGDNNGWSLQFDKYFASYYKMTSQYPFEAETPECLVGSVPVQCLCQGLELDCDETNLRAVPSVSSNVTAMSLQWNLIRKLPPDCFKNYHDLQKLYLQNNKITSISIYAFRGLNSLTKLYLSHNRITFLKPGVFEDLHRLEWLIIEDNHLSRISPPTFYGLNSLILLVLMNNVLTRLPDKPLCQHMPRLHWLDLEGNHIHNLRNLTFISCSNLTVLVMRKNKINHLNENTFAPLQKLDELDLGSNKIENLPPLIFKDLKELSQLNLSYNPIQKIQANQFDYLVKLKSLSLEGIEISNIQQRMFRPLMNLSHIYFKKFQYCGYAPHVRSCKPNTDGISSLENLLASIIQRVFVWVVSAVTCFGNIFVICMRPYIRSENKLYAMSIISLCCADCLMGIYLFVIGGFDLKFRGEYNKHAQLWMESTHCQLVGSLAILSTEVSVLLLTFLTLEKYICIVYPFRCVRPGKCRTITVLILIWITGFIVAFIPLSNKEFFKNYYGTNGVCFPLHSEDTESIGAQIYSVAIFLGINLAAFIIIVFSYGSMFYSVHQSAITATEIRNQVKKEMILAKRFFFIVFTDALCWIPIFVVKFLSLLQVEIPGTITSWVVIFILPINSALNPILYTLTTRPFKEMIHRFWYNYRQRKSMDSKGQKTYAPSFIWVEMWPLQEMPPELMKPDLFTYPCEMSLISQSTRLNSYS


Target: T1, RXFP1 receptor
Assay: cell-based or functional assay

Binder	EC50 (nM), OVCAR 5 cells (cAMP) [nM]	EMax, OVCAR 5 cells (cAMP) [%]
Ac-LEGREKVRAK(Ac)I[Aib][Aib]EG[Nle]STWS[Aib]RKK[PEG2″][PEG2″][PEG2″][PEG2″]K([γGlu-γGlu-γGlu-γGlu-Stearoyl])-NH2 [peptide of SEQ ID NO: 15]	0.32	92
Ac-LEGREKVRAK(Ac)I[Aib][Aib]EG[Nle]STFS[αMeK]RAK(Ac)[PEG2″][PEG2″][PEG2″][PEG2″][γGlu][γGlu][γGlu]K([γGlu-Palmitoyl])-NH2 [peptide of SEQ ID NO: 149]	0.11	87
Ac-LEGREKVRAK(Ac)I[Aib][Aib]EG[Nle]STFS[αMeK]RAK(Ac)[PEG2″][PEG2″][PEG2″][PEG2″]K([γGlu-γGlu-γGlu-γGlu-Palmitoyl])-NH2 [peptide of SEQ ID NO: 150]	0.07	92
Ac-LEGREKVRAK(Ac)I[Aib][Aib]EG[Nle]STFS[Aib]RKK(Ac)K([PEG2′-PEG2′-PEG2′-PEG2′-γGlu-γGlu-γGlu-γGlu-Palmitoyl])-NH2 [peptide of SEQ ID NO: 147]	2.14	86
Ac-LEGREKVRAK(Ac)I[Aib][Aib]EG[Nle]STFSXRKK(Ac)[PEG2′][PEG2′][PEG2′][PEG2′][γGlu][γGlu][γGlu]K([γGlu-Palmitoyl])-NH2 (not fully specified (some residues); printed as Ac-L-E-G-R-E-K-V-R-A-K(Ac)-I-Aib-Aib-E-G-Nle-S-T-F-S-Mly-R-K-K(Ac)-PEG2-PEG2-PEG2-PEG2-gE-gE-gE-K(gE-Palm)-NH2) [peptide of SEQ ID NO: 145]	0.4	99
Ac-LEGREKVRAK(Ac)I[Aib][Aib]EG[Nle]STWS[Aib][Arg(Me2s)]KK(Ac)K-NH2 (not fully specified (residue 25); printed as Ac-L-E-G-R-E-K-V-R-A-K(Ac)-I-Aib-Aib-E-G-Nle-S-T-W-S-Aib-Rds-K-K(Ac)-K(PEG2-PEG2-PEG2-gE-gE-gE-Stea)-NH2) [peptide of SEQ ID NO: 148]	0.11	94
Ac-LEGREKVRAK(Ac)I[Aib][Aib]EG[Nle]STFS[αMeK]RKK(Ac)[TTDS(3)][TTDS(3)][γGlu][γGlu][γGlu]K([γGlu-Palmitoyl])-NH2 (SMILES CCCCCCCCCCCCCCCC(=O)N[C@@H](CCC(=O)NCCCC[C@H](NC(=O)CC[C@H](NC(=O)CC[C@H](NC(=O)CC[C@H](NC(=O)CCC(=O)NCCCOCCOCCOCCCNC(=O)CCC(=O)NCCCOCCOCCOCCCNC(=O)[C@H](CCCCNC(C)=O)NC(=O)[C@H](CCCCN)NC(=O)[C@H](CCCNC(=N)N)NC(=O)[C@](C)(CCCCN)NC(=O)[C@H](CO)NC(=O)[C@H](Cc1ccccc1)NC(=O)[C@@H](NC(=O)[C@H](CO)NC(=O)[C@H](CCCC)NC(=O)CNC(=O)[C@H](CCC(=O)O)NC(=O)C(C)(C)NC(=O)C(C)(C)NC(=O)[C@@H](NC(=O)[C@H](CCCCNC(C)=O)NC(=O)[C@H](C)NC(=O)[C@H](CCCNC(=N)N)NC(=O)[C@@H](NC(=O)[C@H](CCCCN)NC(=O)[C@H](CCC(=O)O)NC(=O)[C@H](CCCNC(=N)N)NC(=O)CNC(=O)[C@H](CCC(=O)O)NC(=O)[C@H](CC(C)C)NC(C)=O)C(C)C)[C@@H](C)CC)[C@@H](C)O)C(=O)O)C(=O)O)C(=O)O)C(N)=O)C(=O)O) [peptide of SEQ ID NO: 146]	0.02	89
